The text below walks through data of patent US20240400703A1 (Genmab, published 2024).

“And” between values parts separate entries of the source, which are not always exact repeats. Equal entries are not always repeated.

Assay [1] deals with T1, human OX40 expressed on cells (human, UniProt P43489 29-277).
T1 construct: also called CD134; TNFRSF4
T1 sequence: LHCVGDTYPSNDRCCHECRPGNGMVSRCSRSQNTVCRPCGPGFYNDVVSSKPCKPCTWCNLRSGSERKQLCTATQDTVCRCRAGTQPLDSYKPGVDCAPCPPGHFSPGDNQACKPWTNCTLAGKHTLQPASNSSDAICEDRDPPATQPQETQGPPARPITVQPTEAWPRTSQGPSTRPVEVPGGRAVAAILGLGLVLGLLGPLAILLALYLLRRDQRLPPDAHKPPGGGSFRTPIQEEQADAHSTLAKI
Briefly: flow cytometry, activated human CD4+ T cells, donor 1. Background: Flow cytometry measures light scatter and fluorescence of single cells or particles in a stream.

Assay [2] addresses T1, human OX40 expressed on cells. Briefly: flow cytometry, activated human CD8+ T cells, donor 3. The procedure: Healthy human donor PBMCs were purified essentially as described in Example 7. The cell concentration was adjusted to 2×10⁶ cells per mL (final concentration) in assay medium and plated in 6-well plates (Greiner, cat. no. 657160). PBMCs were stimulated with 0.3 μg/mL anti-CD3 ([…] Technologies, cat. no. 60011) and 0.5 μg/mL anti-CD28 antibodies (BioLegend, cat. no. 302934) and cultured for two days at 37° C., 5% CO₂. Next, the PBMCs were harvested, counted and brought to a concentration of 2×10⁶ cells per mL in FACS buffer 1 (DPBS with 2% heat-inactivated FBS and 2 mM ethylenediaminetetraacetic acid [EDTA]). […] After 60 min at RT, the cells were prepared for flow cytometric analyses. To this end, the cells were washed twice with 150 μL FACS buffer 1 and 30 μL/well cell-surface antibody mix (Table 9) in FACS buffer 1 containing antibody against human Fcγ antibody (Table 9) and fixable viability dye eFluor780 (1:1,500) was added. The staining procedures were carried out at 4° C. for 15-20 min protected from light. Stained cells were washed twice with 120-150 μL FACS buffer 1 (5 min, 460×g, RT) and resuspended in 60-100 μL FACS buffer 1 for direct flow cytometric analyses. Flow cytometric data were acquired on a FACSymphony A3 and analyzed with FlowJo software.

Assay [3] has the same target. The experiment in a line: flow cytometry, activated human CD4+ T cells, without sOX40L, n=3.
For assay [4] the target is unchanged. Briefly: flow cytometry, activated human CD4+ T cells, with 2 µg/mL sOX40L, n=3. As for the experimental part: (§1) Stimulated PBMCs were pelleted, resuspended in FACS buffer 2 (DPBS with 2% heat-inactivated FBS [Sigma-Aldrich, cat. no. F7524] and 2 mM EDTA [Sigma-Aldrich, cat. no. 03690]), and seeded (100,000 cells/well) in round-bottom 96-well plates (VWR International GmbH, cat. no. 734-197). […] Next, cells were washed twice in FACS buffer, and incubated with 30 μL of the antibody panel described in Table 11 diluted in FACS buffer 2 containing 1:1,500 Fixable Viability Stain eFluor 780 at 4° C. for 20 min, protected from light. The cells were subsequently washed twice with 120-150 μL FACS buffer 2 and measured on a BD FACSCelesta flow cytometer using a BD High Throughput sampler and subsequent analysis was done using FlowJo software.

The target of assay [5] is His-tagged human recombinant FcγRIa (Sino Biological, cat. no. 10256-H08S-B) (human, UniProt P12314 16-288). Briefly: SPR, His-tagged FcγR captured on anti-His chip, antibody injected. As for the experimental part:
(§2) Biacore Series S Sensor Chips CM5 (Cytiva, cat. no. 29104988) were covalently coated with anti-His antibody using amine-coupling and His capture kits (Cytiva, cat. no. BR100050 and cat. no. 29234602) according to the manufacturer's instructions. […] After three start-up cycles of HBS-EP+ buffer, antibody samples were injected for 12 cycles per sample to generate binding curves using antibody concentration ranges of 0 to 3,000 nM for FcγRIa and 0 to 10,000 nM for the other FcγRs.
(§3) Dissociation from the anti-His-coated surface was performed by regeneration of the surface using 10 mM Glycine-HCl pH 1.5 (Cytiva, cat. no. BR100354).
In general terms: SPR reads the build-up and loss of mass on a sensor chip optically.

Assay [6] addresses T2, His-tagged human recombinant FcγRIIa 167-His (Sino Biological, cat. no. 10374-H08H1) (human, UniProt P12318 34-218).
T2 construct: also called FcγRIIa[H]
T2 sequence (looked up): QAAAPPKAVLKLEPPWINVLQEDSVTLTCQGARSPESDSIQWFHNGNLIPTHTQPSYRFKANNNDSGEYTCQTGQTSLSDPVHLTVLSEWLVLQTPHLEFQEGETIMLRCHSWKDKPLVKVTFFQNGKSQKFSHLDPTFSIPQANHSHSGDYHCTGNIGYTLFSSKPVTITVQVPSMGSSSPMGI
The description is as above. As for the experimental part:
as §2, §3

In assay [7] the target is T3, His-tagged human recombinant FcγRIIb (Sino Biological, cat. no. 10259-H27H-B) (human, UniProt P31994 43-217).
T3 construct: also called FcγRII2b [sic]
T3 sequence (looked up): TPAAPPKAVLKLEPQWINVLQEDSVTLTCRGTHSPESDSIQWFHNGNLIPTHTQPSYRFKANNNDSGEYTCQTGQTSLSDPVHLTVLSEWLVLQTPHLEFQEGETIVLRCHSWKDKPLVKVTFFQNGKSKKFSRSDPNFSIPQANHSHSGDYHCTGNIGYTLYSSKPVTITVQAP
The description is as above. As for the experimental part:
as §2, §3

Assay [8] has as its target T4, His-tagged human recombinant FcγRIIIa 176-Phe (Sino Biological, cat. no. 10389-H27H) (human, UniProt P08637 17-208).
T4 construct: also called FcγRIIIa[F]
The description is as above. As for the experimental part: as §2, §3

Assay [9] deals with T5, His-tagged human recombinant FcγRIIIa 176-Val (Sino Biological, cat. no. 10389-H27H1-B) (human, UniProt P08637 17-208).
T5 construct: also called FcγRIIIa[V]
Described as above. The procedure:
as §2, §3

For assay [10], the target named is T1, human OX40 expressed on cells. Briefly: flow cytometry, loss of sOX40L (2 µg/mL) binding to activated human CD4+ T cells; competitor sOX40L. The procedure: as §1

His-tagged human recombinant FcγRIa (Sino Biological, cat. no. 10256-H08S-B), sequence (P12314 16-288 limits assumed, stated change not applied): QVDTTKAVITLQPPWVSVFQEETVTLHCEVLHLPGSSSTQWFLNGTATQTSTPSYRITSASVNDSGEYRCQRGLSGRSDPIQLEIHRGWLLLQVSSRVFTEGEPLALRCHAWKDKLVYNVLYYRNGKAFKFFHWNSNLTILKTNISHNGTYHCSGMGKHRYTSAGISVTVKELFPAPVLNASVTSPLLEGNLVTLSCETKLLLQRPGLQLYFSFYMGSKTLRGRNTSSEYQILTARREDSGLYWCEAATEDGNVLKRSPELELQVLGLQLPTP
T5 sequence (P08637 17-208 F176V limits assumed): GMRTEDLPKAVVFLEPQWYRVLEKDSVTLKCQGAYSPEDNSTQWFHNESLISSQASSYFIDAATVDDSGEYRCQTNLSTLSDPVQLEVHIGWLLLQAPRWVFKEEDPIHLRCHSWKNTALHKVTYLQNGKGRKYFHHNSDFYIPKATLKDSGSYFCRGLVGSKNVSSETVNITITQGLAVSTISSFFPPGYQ
T4 sequence (P08637 17-208 limits assumed): as the sequence (P08637 17-208 F176V limits assumed) above, with V160F counted along it

B1: IgG1-CD134-003-HC6LC2-P329R-E345R (antibody)
heavy: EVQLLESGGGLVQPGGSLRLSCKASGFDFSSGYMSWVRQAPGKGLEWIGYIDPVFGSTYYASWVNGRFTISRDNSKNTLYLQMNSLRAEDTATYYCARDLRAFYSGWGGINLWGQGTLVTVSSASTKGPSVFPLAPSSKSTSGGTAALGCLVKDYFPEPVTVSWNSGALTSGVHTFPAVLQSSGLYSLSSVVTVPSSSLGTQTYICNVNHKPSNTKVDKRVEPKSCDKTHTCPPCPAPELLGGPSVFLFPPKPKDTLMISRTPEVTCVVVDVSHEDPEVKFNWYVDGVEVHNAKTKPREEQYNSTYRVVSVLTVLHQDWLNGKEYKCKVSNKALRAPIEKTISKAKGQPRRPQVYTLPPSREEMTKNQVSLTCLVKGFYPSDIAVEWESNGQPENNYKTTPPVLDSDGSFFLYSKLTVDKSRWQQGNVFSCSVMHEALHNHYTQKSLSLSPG
light: AAVLTQSPSSLSASVGDRVTITCQSSQIVVNNNFLSWYQQKPGKAPKLLIYDASNLASGVPDRFSGSGSGTDFTFTISSLQPEDIATYYCLGGYDDDAENAFGGGTKVEIKRTVAAPSVFIFPPSDEQLKSGTASVVCLLNNFYPREAKVQWKVDNALQSGNSQESVTEQDSKDSTYSLSSTLTLSKADYEKHKVYACEVTHQGLSSPVTKSFNRGEC
notes: humanized; human IgG1 with P329R and E345R (Eu numbering), kappa; also called IgG1-CD134-003-HC6LC2-RR
What is called EC50 is the concentration needed to bring the measured effect to its halfway point. A high value points to a need for much substance. As usually defined, the IC50 is the point on the concentration scale where inhibition reaches its midpoint. The low end stands for greater potency, the high end for weaker potency. Turning to B1, the EC50 in [1] is 0.0273 µg/mL; in assay [2], 0.0217 µg/mL; in assay [3], 0.019 µg/mL and 0.13 nM; in [4], 0.054 µg/mL and 0.359 nM. The binding result is given as “binds” in assay [5]; “no binding (tested: 10,000 nM)” in assay [6]; “no binding (tested: about 5,000 nM)” in assay [7]; “no binding (tested: about 4,000 nM)” in assay [8]; “no binding (tested: 10,000 nM)” in [9]. Further, the IC50 in assay [10] came out at 0.086 µg/mL.
